Patent US20190375846A1 (ULTRAHUMAN ONE, published 2019)
Where a chain is given by its changes, count along the chain named. One block for each binder: values may come before it.

Key:
[1] = molecular target: T1, human GITR at the cell surface (human, UniProt Q9Y5U5 26-241); assay: flow cytometry, human GITR-transfected murine blastoma cells, 10,000-13.7 ng/ml
T1 construct: whole, on cells; The cell type is named in the assay field of each row; also called human GITR+ cells; CHO-K1 human GITR+ cells
T1 sequence (looked up): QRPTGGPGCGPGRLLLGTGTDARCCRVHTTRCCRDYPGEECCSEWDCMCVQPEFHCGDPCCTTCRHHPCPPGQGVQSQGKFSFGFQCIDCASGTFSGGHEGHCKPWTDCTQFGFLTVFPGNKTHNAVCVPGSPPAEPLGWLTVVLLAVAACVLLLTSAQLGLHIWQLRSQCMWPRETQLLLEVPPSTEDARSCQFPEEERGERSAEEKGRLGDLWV
Description: (§1) Concentration-dependent binding to GITR at the cell surface was analysed using flow cytometry.

human GITR-Fc [2] = molecular target: T2, human GITR-Fc (human, UniProt Q9Y5U5 26-161); assay: HTRF competition: unlabelled IgG1 titrated 0.003-100 µg/ml against terbium-labelled VH1/VL1 IgG on biotinylated human GITR-Fc with SA-XL665, 665/615 ratio
T2 construct: Recombinant GITR-Fc; also called hGITR-Fc; hGITR; not shown: Fc part
T2 sequence (looked up): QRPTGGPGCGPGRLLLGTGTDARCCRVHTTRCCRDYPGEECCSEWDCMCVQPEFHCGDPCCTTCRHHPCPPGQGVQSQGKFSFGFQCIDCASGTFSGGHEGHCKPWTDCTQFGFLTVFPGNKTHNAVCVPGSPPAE
Description: A competition HTRF assay was established to examine epitope competition against VH1/VL1 IgG by grafted and library-derived clones. The purified VH1/VL1 IgG was labelled with terbium using a labelling kit (CisBio) per the manufacturers instructions. The final reaction mix contained biotinylated human GITR-Fc, SA-XL665 (CisBio), terbium-labelled parental […], and competitor IgG of interest, prepared as described above, in a total reaction volume of 20 μl in 1× assay buffer [50 mM sodium phosphate, pH 7.5, 400 mM potassium fluoride, and 0.1% BSA (w/v)]. Reagents were added sequentially on a MiniTrak Liquid Handling Platform (Perkin-Elmer) into 384-well low-volume black plates (Nunc). Reactions proceeded for 1 h at room temperature, and plates were subsequently read on a plate reader with excitation at 340 nm and two emission readings at 615 nm (measuring input donor fluorescence from VH1-VL1-cryptate) and 665 nm (measuring output acceptor fluorescence from SAXL665). Readings were expressed as 665 nm/615 nm ratios.
To examine the competition of the library-derived clones with the unaltered, closest-germline grafted CDRs of VH1/VL1 IgG, an Homogeneous Time Resolved Fluorescence (HTRF) assay was established. This assay incorporated terbium-labelled VH1/VL1 IgG, Biotinylated hGITR-Fc and streptavidin-XL665, in solution-phase binding. […]

[3] = molecular target: T1, human GITR at the cell surface; assay: flow cytometry on CHO-K1 human GITR+ cells; competitor: soluble human GITRL
[4] = molecular target: T3, cynomolgus monkey GITR at the cell surface (cynomolgus monkey); assay: cell-based or functional assay
[5] = molecular target: T1, human GITR at the cell surface; assay: cell-based or functional assay
[6] = molecular target: T3, cynomolgus monkey GITR at the cell …; assay: flow cytometry, cyno GITR-transfected murine blastoma cells, 10,000-13.7 ng/ml
Description: as §1

human GITR-Fc [7] = molecular target: T2, human GITR-Fc; assay: ELISA of IgG1 proteins
Description: (§2) To coat Greiner Bio-One High bind ELISA plates, target proteins were diluted to 1 μg/ml in carbonate buffer and added at 100 μl per well, at 4° C., o/n. Coated plates were washed 3× with PBS pH7.4, blocked with 1% BSA in PBS (380 μl/well) for 1 hr at RT, then washed 3× with PBS-Tween 20 (PBST). GITR antibodies (100 μl/well; diluted in PBST) were then added and then incubated 1 hr at RT. Plates were then washed 3× with PBST and goat anti-human kappa chain-HRP added (100 μl/well) at RT, for 1 hr. Plates were then washed 3× with PBST and twice with PBS before the addition of 100 μl TMB per well. Reactions were stopped by adding 100 μl 2M H₂SO₄/well and OD was read on a plate reader at 450 nm. IgG binding analysis via ELISA on negatively charged biomolecular surfaces were performed as previously described (see Mouquet et al., 2010, Nature 467: 591-595).
To examine the influence of these mutations on immunogenicity and function, five further designer mutants (A6.1 to A6.5, see Table 4 for CDR sequences) were also submitted for Epibase analysis (Table 5). […] Cyno GITR binding was greatly diminished for all of clones A6.2 to A6.5.

human GITR-Fc [8] = molecular target: T2, human GITR-Fc; assay: SPR (Biacore), Fab over GITR-Fc captured on anti-human Fc, 37 C, 1:1 model
Description: (§3) For affinity estimation, anti-human IgG Fc antibody was amine coupled at pH 5 onto three flow cells (Fc 1 to Fc 3) of a Biacore CM5 chip. The level of anti-Fc antibody immobilised onto the chip was approximately 550 RU. Human and cyno GITR-Fc and irrelevant receptor-Fc proteins were then captured onto the anti-Fc antibodies (by injecting over the antibody surface until nearly/completely saturated) in order that 80-100 RU were captured. Fab monomers were then injected over the Fc proteins captured on the chip at 37° C. a flow rate of 50 μl/min for 120 seconds, followed by Biacore running buffer (HBS-EP) being flowed over the chip for 240 seconds at 50 μl/min. The chip was regenerated between cycles using 2×15 second injections of 10 mM Glycine pH 2. The concentrations of Fab samples tested were 400, 200, 100, 50, 25, 12.5, and 6.25 nM. A Biacore running buffer control (0 nM) was also included as a control.
(§4) Monomeric Fab fragments were generated and flowed in the mobile phase on human and cyno GITR-Fc coated biosensor chips, to derive 1:1 binding values.

[9] = molecular target: T4, cynomolgus monkey GITR-Fc (cynomolgus monkey (Macaca fascicularis)); assay: as above
T4 construct: also called cyno GITR-Fc; cGITR-Fc
Description: as §3, §4

[10] = molecular target: T4, cynomolgus monkey GITR-Fc; assay: SPR (Biacore), Fab over GITR-Fc captured on anti-human Fc
Description: as §3, §4

human GITR-Fc [11] = molecular target: T2, human GITR-Fc; assay: direct titration ELISA on coated human GITR-Fc, IgG1 0.001-1 µg/ml, OD 450 nm
Description: as §2
The 17 purified IgGs described above were then tested for binding to human and cyno GITR-Fc in direct titration ELISA format.

B1: VH1/VL1 IgG1 (antibody, V domains shown)
VH: QVTLRESGPALVKPTQTLTLTCTFSGFSLSTSGMGVGWIRQPPGKALEWLAHIWWDDDKYYNPSLKSRLTISKDTSKNQVVLTMTNMDPVDTATYYCARTRRYFPFAYWGQGTLVTVSS
VL: EIVMTQSPATLSVSPGERATLSCKASQNVGTNVAWYQQKPGQAPRLLIYSASYRYSGIPARFSGSGSGTEFTLTISSLQSEDFAVYYCQQYNTDPLTFGGGTKVEIK
notes: Full-length human IgG1; also called hVH1/VL1; G-VH1/VL1
concentration at maximum MFI [1]: ~1110 ng/mL
IC50 (read off the curve) (human GITR-Fc [2]): ~1 µg/mL
fold reduction of binding signal in the presence of 10 µg/ml soluble GITRL [3]: > 10 fold
EC50 of FcγRIIIa activation, Promega ADCC reporter assay, CHO-K1 target cells expressing cyno GITR [4]: 160 nM
EC50 of FcγRIIIa activation, Promega ADCC reporter assay, CHO-K1 target cells expressing human GITR [5]: 35.6 nM
concentration at maximum MFI [6]: ~1110 ng/mL

B3: A6.3 IgG1 (antibody, V domains shown)
VH: EVQLVESGGGLVQPGGSLRLSCAASGFSLSTSGYGVSWVRQAPGKGLEWLAHIWWDDDKYYVDSVKGRFTISRDNAKNSLYLQMNSLRAEDTAVYYCARTRQYFPFAYWGQGTLVTVSS
VL: EIVLTQSPATLSLSPGERATLSCRASQSVGSNLAWYQQKPGQAPRLLIYSASNRYTGIPARFSGSGSGTDFTLTISSLEPEDFAVYYCQQYSTDPLTFGGGTKVEIK
notes: Human IgG1, designer mutant of D-A6; built as m28; also called Clone A6.3
binding result (human GITR-Fc [7]): binds

B7: MH IgG1 (Maximally Humanized designer clone) (antibody, V domains shown)
VH: B3 VH with V36M, L50V, D58E
VL: B3 VL with N53Y, Y55A
notes: Human IgG1, designer clone; also called Clone MH
binding result (human GITR-Fc [11]): binds

Now from value to binder:

binding result (human GITR-Fc [7]): binds
B2: A6.2 IgG1 (antibody, V domains shown)
VH: B3 VH with S37G
VL: B3 VL with D94N
notes: Human IgG1, designer mutant of D-A6; built as m28; also called Clone A6.2

Kd (human GITR-Fc [8]): 120 nM
koff (human GITR-Fc [8]): 0.011 s⁻¹
kon (human GITR-Fc [8]): 92000 M⁻¹ s⁻¹
Kd [9]: 57 nM
koff [9]: 0.0021 s⁻¹
kon [9]: 37000 M⁻¹ s⁻¹
fold improved affinity against VH1/VL1 Fab [10]: ~4 fold
B4: D-A6 Fab (Fab, V domains shown)
VH: B3 VH with S37G
VL: B3 VL with N53Y
notes: v-domains built as m25; also called D-A6 Fab fragment

binding result (human GITR-Fc [7]): binds
B5: A6.4 IgG1 (antibody, V domains shown)
VH: B3 VH with V36M
VL: B3 VL
notes: Human IgG1, designer mutant of D-A6; built as m28; also called Clone A6.4

binding result (human GITR-Fc [7]): binds
B6: A6.5 IgG1 (antibody, V domains shown)
VH: B3 VH with V36M, S37G
VL: B3 VL
notes: Human IgG1, designer mutant of D-A6; built as m28; also called Clone A6.5
